US20230340090A1
Where a chain is given by its changes, count along the chain named.

T1: TP-24 peptide (human)
T1 sequence (peptide, biotinylated): REFFSQYGDVMDVFI

T2: TP-25 peptide (human)
T2 sequence (peptide, biotinylated): VMDVFIPKPFRAFAF

B1: ACI-7062-404D6-Ab2 (antibody, IgG3, V domains shown)
VH: QVTLKESGPGILQPSQTLSLTCSFSGFSLSTYGIGVGWIRQPSGKGLEWLAHIWWNDYKYYNTALKSRLTISKDTSNNRVFLKIASVDTADTATYYCARVYGNLYYFDYWGQGTTLTVSS
VL: DVLMTQTPLSLPVSLGDQASISCRSSQSIVHGSGNTYLEWYLQKPGQSPKLLIYKVSNRFSGVPDRFSGSGSGTDFTLRISRVEAEDLGVYYCFQGSHVPTFGAGTKLELKR
B2: ACI-7062-415C4-Ab1 (antibody, IgG1, V domains shown)
VH: B1 VH with Y58N, N62K, R79Q, T92S, D108G
VL: B1 VL with G32S, S33T, R79K, H98R
B3: ACI-7062-416A11-Ab1 (antibody, IgG2a, V domains shown)
VH: B1 VH with P14S, Y58N, R79Q, T92A, D108G
VL: B1 VL with Q18R, G32S, R79K, H98R
B4: ACI-7062-410H3-Ab1 (antibody, IgG1, V domains shown)
VH: DVQLVESGGGLVQPGGSRRLSCAASGFTFSSFGMHWVRQAPEKGLEWVAYIRSGSDIIYYADSVKGRFTISRDNPENTLFLQMTSLRSEDTAMYYCARSGTTVPFDYWGQGTSLTVSS
VL: DIVMTQSPSSLAMSVGQKVTMSCKSSQSLLNSGNQKNYLAWYQQKPGQSPELLLYFASTRASGVPDRFIGSGSGTDFTLTISSVQAEDLADYFCQQHYSIPLTFGAGTKLELKR
B5: ACI-7062-401A2-Ab2 (antibody, IgG1, V domains shown)
VH: B4 VH with S31R
VL: B4 VL with N34D, T78S
B6: ACI-7062-412E12-Ab1 (antibody, IgG1, V domains shown)
VH: B4 VH with S31R
VL: B4 VL with N34D, T78S
B7: ACI-7062-412A7-Ab1 (antibody, IgG2b, V domains shown)
VH: B4 VH
VL: B4 VL

Legend:
TP-24 peptide (human) = molecular target: T1, TP-24 peptide (human); assay: indirect ELISA, biotinylated 15-mer on streptavidin plate
TP-25 peptide (human) = molecular target: T2, TP-25 peptide (human); assay: as above

| Binder | OD (O.D. (405 nm)) (TP-24 peptide (human)) | OD (O.D. (405 nm)) (TP-25 peptide (human)) |
| --- | --- | --- |
| B1 | 4 | 0.9 |
| B2 | 3.8 | 1.2 |
| B3 | 2.9 | 0.9 |
| B4 | 3.8 | 0.8 |
| B5 | 2.5 | 1 |
| B6 | 3.2 | 1.2 |
| B7 | 4 | 1.4 |
